Laboratory results published in PMC9015746.

Assays:
[1] = biological target: Bluetongue virus core protein VP7 (in the purified BTV-1 virion) (bluetongue virus BTV-1); experiment: cryo-EM structure
[2] = biological target: Bluetongue virus membrane penetration protein VP5 (in the purified BTV-1 virion) (bluetongue virus BTV-1); experiment: cryo-EM structure
[3] = biological target: purified wild-type VP5 protein (bluetongue virus BTV-1); experiment: SEC

“Bluetongue virus core protein VP7 (in the purified BTV-1 virion) (natural protein)” showed a stoichiometry N [1] of 3.

In the case of “Bluetongue virus membrane penetration protein VP5 (in the purified BTV-1 virion) (natural protein)”, the stoichiometry N [2] was 3.

With “purified wild-type VP5 protein (natural protein)” the stoichiometry N [3] was 3.
